For this assay, the target named is catalase (PktA) from Psychrobacter piscatorii T-3 (Psychrobacter piscatorii T-3). Put plainly: SEC; gel filtration on two Protein PAK 300 columns, 0.1 M potassium phosphate buffer (pH 7.0), against mass standards; native mass compared with the subunit mass by SDS-PAGE.

“catalase (PktA) from Psychrobacter piscatorii T-3 (enzyme)” gave a stoichiometry N of 4.
